The source of these data is the supplement of paper PMC7877785.

A short description of the data set: self-splicing fitness, log relative to wild type (ln ratio); higher = more splicing; Tetrahymena group I intron in knt gene, E. coli kanamycin selection, DiMSum; sequences stand for … in CUCUCU…GGAGGGAAAAGUUAUCAGGCAUGCACCUGGUAGCUAGUCUUUAAACCAAUAGAUUGCAUCGGUUUAAAAGGCAAGACCGUCAAAUUGCGGGAAAGGGGUCAACAGCCGUUCAGUACCAAGUCUCAGGGGAAACUUUGAGAUGGCCUUGCAAAGGGUAUGGUAAUAAGCUGACGGACAUGGUCCUAACCACGCAGCCAAGUCCUAAGUCAACAGAUCUUCUGUUGAUAUGGAUGCAGUUCACAGACUAAAUGUCGGUCGGGGAAGAUGUAUUCUUCUCAUAAGAUAUAGUCGGACCUCUCCUUAAUGGGAGCUAGCGGAUGAAGUGAUGCAACACUGGAGCCGCUGGGAACUAAUUUGUAUGCGAAAGUAUAUUGAUUAGUUUUGGAGUACUCGUGGUCG
The essentials: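 The eight P1ex-region nucleotides of an intron in the knt kanamycin-resistance gene on pET-22b(+) were all randomised and the library put into E. coli BL21(DE3). Six replicate transformations were grown overnight at 37°C or 30°C on LB agar with or without 25 μg/mL kanamycin, together with 100 μg/mL carbenicillin, 50 μM IPTG and 0.2% rhamnose. Colonies were pooled and amplicon-sequenced on an Illumina HiSeq 2500. Fitness from DiMSum is the error-weighted combination of wild-type-normalised replicate fold changes, kanamycin over none.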

± gives the uncertainty stated by the source.

Turning to GCGAAGCAAUAUUACGGUAA, the “self-splicing fitness (ln)” value (30 °C) was -2.4 ± 0.15 and the “self-splicing fitness (ln)” value (37 °C) is -1.65 ± 0.12.

AAAUAGCAAUAUUACGGGCC: the “self-splicing fitness (ln)” value is, setting by setting: (30 °C) -2.49 ± 0.32; (37 °C) -2.55 ± 0.41. The like results for UAAUAGCAAUAUUACGGUGG were, in that order, -4.08 ± 0.25 and -1.12 ± 0.12. Take GUAAAGCAAUAUUACGAUAU: the “self-splicing fitness (ln)” value by setting is: (30 °C) -0.349 ± 0.087; (37 °C) -0.0732 ± 0.11. For the sequence AGACAGCAAUAUUACGAGAU, the “self-splicing fitness (ln)” value is -2.88 ± 0.1 (30 °C) and -2.85 ± 0.18 (37 °C). GACAAGCAAUAUUACGCCGU: the “self-splicing fitness (ln)” value by setting is: (30 °C) -2.93 ± 0.14; (37 °C) -0.97 ± 0.12.

As for AUACAGCAAUAUUACGCCAG, the “self-splicing fitness (ln)” value was -1.79 ± 0.14 (30 °C) and -2.03 ± 0.2 (37 °C). With GAGGAGCAAUAUUACGCUAU, the “self-splicing fitness (ln)” value (30 °C) was -2.8 ± 0.27 and the “self-splicing fitness (ln)” value (37 °C) was -2.05 ± 0.45.

In the case of GGUUAGCAAUAUUACGCGAC, the “self-splicing fitness (ln)” value runs as follows: (30 °C) -2.02 ± 0.34; (37 °C) -1.33 ± 0.27.

AUGGAGCAAUAUUACGCCGA: the “self-splicing fitness (ln)” value reads like this: (30 °C) -2.82 ± 0.32; (37 °C) -2.87 ± 0.48. The matching figures for CUAGAGCAAUAUUACGGAAG: -0.402 ± 0.07 and -0.264 ± 0.1. Consider GCGCAGCAAUAUUACGCUAG, for which the “self-splicing fitness (ln)” value was -3.26 ± 0.28 (30 °C) and -2.15 ± 0.33 (37 °C). CAUAAGCAAUAUUACGGGCA: the “self-splicing fitness (ln)” value reads like this: (30 °C) -2.77 ± 0.18; (37 °C) -1.8 ± 0.19.

Consider ACGGAGCAAUAUUACGUUUA, for which the “self-splicing fitness (ln)” value runs as follows: (30 °C) -3.14 ± 0.2; (37 °C) -2.68 ± 0.21. Consider GCCAAGCAAUAUUACGCUUC, for which the “self-splicing fitness (ln)” value is, setting by setting: (30 °C) -2.75 ± 0.14; (37 °C) -1.17 ± 0.16.

For UGGUAGCAAUAUUACGACAA, the “self-splicing fitness (ln)” value (30 °C) was -0.344 ± 0.41 and the “self-splicing fitness (ln)” value (37 °C) is -0.278 ± 0.31. The like results for AACAAGCAAUAUUACGCCCU were, in that order, 0.18 ± 0.062 and 0.0436 ± 0.08. On to AGCGAGCAAUAUUACGUUCA, for which the “self-splicing fitness (ln)” value (30 °C) is -1.81 ± 0.096 and the “self-splicing fitness (ln)” value (37 °C) is -0.891 ± 0.091. The like results for AUAGAGCAAUAUUACGCGUG were, in that order, -0.385 ± 0.11 and -1.09 ± 0.13. In the case of CGUCAGCAAUAUUACGAACG, the “self-splicing fitness (ln)” value runs as follows: (30 °C) -2.55 ± 0.17; (37 °C) -1.32 ± 0.18.

For the sequence UUGGAGCAAUAUUACGGGCU, the “self-splicing fitness (ln)” value (37 °C) was -2.95 ± 0.34. Regarding ACAUAGCAAUAUUACGAAAG, the “self-splicing fitness (ln)” value (30 °C) was -3.36 ± 0.22 and the “self-splicing fitness (ln)” value (37 °C) was -2.06 ± 0.23. The matching figures for AGGCAGCAAUAUUACGAACU: 0.174 ± 0.095 and 0.719 ± 0.12. As to CCUGAGCAAUAUUACGCGUG, the “self-splicing fitness (ln)” value was -3.05 ± 0.19 (30 °C) and -2.82 ± 0.22 (37 °C). The matching figures for GUGGAGCAAUAUUACGUGGU: -2.9 ± 0.27 and -2.51 ± 0.28. The like results for GACUAGCAAUAUUACGUAUC were, in that order, -2.74 ± 0.11 and -1.98 ± 0.12. The matching figures for CCCCAGCAAUAUUACGCCGU: -3.04 ± 0.16 and -2.23 ± 0.21. Consider ACGUAGCAAUAUUACGUAUC, for which the “self-splicing fitness (ln)” value is -3.45 ± 0.24 (30 °C) and -2.89 ± 0.26 (37 °C). For the sequence ACUGAGCAAUAUUACGGGCG, the “self-splicing fitness (ln)” value was -2.3 ± 0.15 (30 °C) and -1.01 ± 0.18 (37 °C). For UAGUAGCAAUAUUACGCCGU, the “self-splicing fitness (ln)” value reads like this: (30 °C) -2.58 ± 0.24; (37 °C) -2.23 ± 0.3.
